The experiment has as its target T1, CD55 antigen (coated on ELISA plate) (UniProt P08174 35-353, limits assumed).
T1 sequence (looked up): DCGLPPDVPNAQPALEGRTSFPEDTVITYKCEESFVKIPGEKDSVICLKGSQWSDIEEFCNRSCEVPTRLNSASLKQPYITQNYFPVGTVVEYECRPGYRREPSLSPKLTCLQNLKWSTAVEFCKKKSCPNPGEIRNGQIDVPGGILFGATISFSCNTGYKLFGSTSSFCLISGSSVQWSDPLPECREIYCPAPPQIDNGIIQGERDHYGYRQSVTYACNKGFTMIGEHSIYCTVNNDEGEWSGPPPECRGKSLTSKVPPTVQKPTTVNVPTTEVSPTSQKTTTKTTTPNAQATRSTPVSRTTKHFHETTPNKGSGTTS
Kind of experiment: ELISA on coated CD55 antigen (0.5 µg/well). The method, then: In brief, CD55 antigen (0.5 μg/well) was coated in a volume of 50 μl/well. The primary antibody was incubated at 12 μg/ml (0.6 μg/well). Buffer was pH6.5 and for the dilution buffer used was High salt pH8.0.
A general note: ELISA stands for enzyme-linked immunosorbent assay.

B1: SAM-6 antibody (human IgM produced by hybridoma deposited as DSM ACC2903) (antibody, V domains shown)
VH: GGGVVQPGRSLRLSCAASGFTFSSYAMHWVRQAPGKGLEWVAVISYDGSNKYYADSVKGRFTISRDNSKNTLYLQMNSLRAEDTAVYYCARDRLAVAGRPFDYWGQGTLVTVSS
VL: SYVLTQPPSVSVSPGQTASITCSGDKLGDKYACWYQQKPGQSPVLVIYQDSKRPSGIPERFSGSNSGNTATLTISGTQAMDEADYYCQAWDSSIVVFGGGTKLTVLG
notes: Human IgM, lambda light chain, purified from hybridoma supernatant; CDR-H3 was not observed; also called SAM-6 HAB; SAM-6 HAB IgM
Turning to B1, the binding result is recorded as “no binding (tested: 12 µg/ml)”.

(Values after patent US20110207917A1 (PATRYS, published 2011).)
